Non-standard residues stand in square brackets, D forms with d. No end group written: not given here. pY = N[C@@H](Cc1ccc(OP(=O)(O)O)cc1)C(=O)O; pT = C[C@@H](OP(=O)(O)O)[C@H](N)C(=O)O
B1: phospho-p27 peptide NAGSVEQT*PKKPGLRRRQT (peptide)
peptide: NAGSVEQ[pT]PKKPGLRRRQT
notes: Coupled to Sepharose beads; 19 C-terminal residues of p27; also called phospho-T187 p27 peptide; p27 phosphopeptide

Legend:
human F-box protein FBP1 = biological target: T1, human F-box protein FBP1 (human, UniProt Q9Y297 1-605); test: in vitro translated 35S-FBP on phospho-p27 peptide Sepharose beads, RIPA wash, autoradiography
T1 sequence: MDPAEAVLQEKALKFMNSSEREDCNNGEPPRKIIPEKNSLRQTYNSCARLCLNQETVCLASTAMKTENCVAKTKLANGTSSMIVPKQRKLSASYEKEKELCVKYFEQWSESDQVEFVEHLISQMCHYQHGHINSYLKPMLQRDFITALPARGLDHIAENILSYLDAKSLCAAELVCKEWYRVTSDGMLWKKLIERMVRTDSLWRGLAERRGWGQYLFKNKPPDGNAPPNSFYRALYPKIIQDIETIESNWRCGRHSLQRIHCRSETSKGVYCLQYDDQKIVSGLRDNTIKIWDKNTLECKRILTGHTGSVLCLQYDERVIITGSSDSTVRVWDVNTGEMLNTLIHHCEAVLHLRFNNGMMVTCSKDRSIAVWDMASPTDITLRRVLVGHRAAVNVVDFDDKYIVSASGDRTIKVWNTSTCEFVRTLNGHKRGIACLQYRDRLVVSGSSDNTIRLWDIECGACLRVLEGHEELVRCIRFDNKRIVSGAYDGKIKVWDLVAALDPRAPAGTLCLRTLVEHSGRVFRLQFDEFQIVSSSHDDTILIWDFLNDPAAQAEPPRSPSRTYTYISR
Protocol: (§1) FIG. 37A-C. […] Beads were washed with RIPA buffer and bound proteins were eluted and subjected to electrophoresis and autoradiography (Upper Panel). Bottom Panel: 10% of the in vitro translated [35S]FBP inputs. […] Beads were washed with RIPA buffer and bound proteins were immunoblotted with antibodies to the proteins indicated on the left of each panel. A portion of the HeLa extract (25 μg) was used as a control (lane 4). […] C. […] Beads were washed with RIPA buffer and bound proteins subjected to electrophoresis and autoradiography.

[1] = biological target: T2, human F-box protein FBP3a (human, UniProt Q9UKT7 1-428); test: as above
T2 sequence: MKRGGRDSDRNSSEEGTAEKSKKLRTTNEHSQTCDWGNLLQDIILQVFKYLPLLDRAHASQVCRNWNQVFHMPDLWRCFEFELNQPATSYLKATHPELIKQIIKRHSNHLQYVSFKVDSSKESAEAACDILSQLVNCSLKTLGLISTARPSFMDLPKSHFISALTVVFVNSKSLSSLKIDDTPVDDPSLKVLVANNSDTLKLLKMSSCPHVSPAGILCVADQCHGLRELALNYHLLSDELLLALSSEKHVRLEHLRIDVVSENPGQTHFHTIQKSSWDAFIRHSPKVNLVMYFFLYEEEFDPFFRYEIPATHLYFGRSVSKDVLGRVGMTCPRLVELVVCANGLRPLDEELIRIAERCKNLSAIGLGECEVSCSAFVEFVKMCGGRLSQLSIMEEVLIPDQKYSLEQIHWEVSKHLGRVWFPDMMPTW
Protocol: as §1

human F-box protein FBP5 = biological target: T3, human F-box protein FBP5 (human, UniProt Q9UKT4 1-447); test: as above
T3 construct: Gal4 AD fusion in the two-hybrid screen; the clone appeared to be full length
T3 sequence: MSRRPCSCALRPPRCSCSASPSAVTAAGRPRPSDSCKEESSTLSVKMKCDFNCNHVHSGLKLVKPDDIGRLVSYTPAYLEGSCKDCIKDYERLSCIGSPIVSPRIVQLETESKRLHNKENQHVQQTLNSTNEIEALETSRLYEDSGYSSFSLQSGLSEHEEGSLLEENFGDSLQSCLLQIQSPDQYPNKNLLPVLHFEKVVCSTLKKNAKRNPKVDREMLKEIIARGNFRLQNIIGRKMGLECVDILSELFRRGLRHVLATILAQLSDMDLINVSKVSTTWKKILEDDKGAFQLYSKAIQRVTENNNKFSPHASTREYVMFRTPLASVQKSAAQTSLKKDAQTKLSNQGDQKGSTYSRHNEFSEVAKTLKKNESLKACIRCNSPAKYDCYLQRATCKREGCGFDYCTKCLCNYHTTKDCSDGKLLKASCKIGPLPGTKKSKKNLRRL
Protocol: as §1

human F-box protein FBP2 = biological target: T4, human F-box protein FBP2 (human, UniProt Q9UKT8 1-419, limits assumed); test: as above
T4 sequence: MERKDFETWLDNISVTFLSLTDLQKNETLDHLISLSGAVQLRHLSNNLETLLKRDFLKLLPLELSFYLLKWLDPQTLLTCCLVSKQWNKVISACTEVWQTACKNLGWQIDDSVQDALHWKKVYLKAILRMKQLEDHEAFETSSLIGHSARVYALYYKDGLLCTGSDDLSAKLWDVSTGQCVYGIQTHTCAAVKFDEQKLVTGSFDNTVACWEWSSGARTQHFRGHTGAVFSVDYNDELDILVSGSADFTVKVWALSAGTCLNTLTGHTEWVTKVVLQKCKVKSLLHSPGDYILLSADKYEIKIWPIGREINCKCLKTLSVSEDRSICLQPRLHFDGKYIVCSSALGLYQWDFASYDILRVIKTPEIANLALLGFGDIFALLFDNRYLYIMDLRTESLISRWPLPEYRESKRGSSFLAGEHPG
Protocol: as §1

human Cul1 (endogenous) [2] = biological target: T5, human Cul1 (endogenous) (human, UniProt Q13616 1-776); test: anti-Flag co-immunoprecipitation from transfected HeLa cells, anti-Cul1 immunoblot
T5 construct: A slower migrating form is said to be likely modified by a ubiquitin-like molecule
Description: HeLa cells were transfected with mammalian expression plasmids encoding Flag-tagged versions of FBP1 (lane 1), (ΔF)FBP1 (lane 2), FBP4 (lane 3), FBP7 (lane 5), FBP2 (lane 7), (ΔF)FBP2 (lane 8), FBP3a (lane 9), (ΔF)FBP3a (lane 10), or with an empty vector (lanes 4 and 6). Cells were lysed and extracts were subjected to immunoprecipitation with a rabbit anti-Flag antibody (lanes 1-8). Immunoprecipitates were then immunoblotted with a mouse anti-Cul1 monoclonal antibody, a rabbit anti-Skp1 polyclonal antibody or a rabbit anti-Cul2 polyclonal antibody, as indicated. The last lane contains 25 μg of extracts from non-transfected HeLa cells; […] contains recombinant Cul1, Skp1, or Cul2 proteins used as markers.

[3] = biological target: human Skp1 (endogenous, HeLa cells) (human, UniProt P63208 2-163); test: HeLa cell extract on peptide beads, RIPA wash, immunoblot
Protocol: (§2) Beads were washed with RIPA buffer and bound proteins were immunoblotted with antibodies to the proteins indicated on the left of each panel. A portion of the HeLa extract (25 μg) was used as a control (lane 4). […] C. […] Beads were washed with RIPA buffer and bound proteins subjected to electrophoresis and autoradiography.
(§3) Proteins stably associated with the beads were examined by immunoblotting.

human Cul1 (endogenous) [4] = biological target: T5, human Cul1 (endogenous); test: as above
Protocol: as §2, §3

human F-box protein Skp2 = biological target: T6, human F-box protein Skp2 (human, UniProt Q13309 1-424); test: as above
T6 construct: Used as in vitro translated 35S-Skp2, as endogenous protein of HeLa and IMR90 extracts and as untagged baculovirus protein; also called S-phase kinase-associated protein 2
Protocol: as §2, §3

His-tagged Elongin C = His-tagged Elongin C (human, UniProt Q15369 1-112); test: pull-down of in vitro translated 35S-FBP on His-Elongin C Nickel-agarose beads
Protocol: FIG. 29. FBPs interact specifically with Skp1 through their F-box. The cDNAs of FBPs (wild type and mutants) were transcribed and translated in vitro (IVT) in the presence of 35S- methionine. […] Bound IVT proteins were analyzed by SDS-PAGE and autoradiography. The arrows on the left side of the panels point to the indicated FBPs. The apparent molecular weights of the protein standards are indicated on the right side of the panels.
As examples of the human FBP family, a more detailed characterization of some FBPs was performed. To confirm the specificity of interaction between the novel FBPs and human Skp1, eight in vitro translated FBPs were tested for binding to His-tagged-Skp1 pre-bound to Nickel-agarose beads. As a control Elongin C was used, the only known human Skp1 homolog.

[5] = biological target: B1; test: in vitro translated 35S-FBP on phospho-p27 peptide Sepharose beads, RIPA wash, autoradiography
Protocol: as §1

T5 sequence (Q13616 whole entry): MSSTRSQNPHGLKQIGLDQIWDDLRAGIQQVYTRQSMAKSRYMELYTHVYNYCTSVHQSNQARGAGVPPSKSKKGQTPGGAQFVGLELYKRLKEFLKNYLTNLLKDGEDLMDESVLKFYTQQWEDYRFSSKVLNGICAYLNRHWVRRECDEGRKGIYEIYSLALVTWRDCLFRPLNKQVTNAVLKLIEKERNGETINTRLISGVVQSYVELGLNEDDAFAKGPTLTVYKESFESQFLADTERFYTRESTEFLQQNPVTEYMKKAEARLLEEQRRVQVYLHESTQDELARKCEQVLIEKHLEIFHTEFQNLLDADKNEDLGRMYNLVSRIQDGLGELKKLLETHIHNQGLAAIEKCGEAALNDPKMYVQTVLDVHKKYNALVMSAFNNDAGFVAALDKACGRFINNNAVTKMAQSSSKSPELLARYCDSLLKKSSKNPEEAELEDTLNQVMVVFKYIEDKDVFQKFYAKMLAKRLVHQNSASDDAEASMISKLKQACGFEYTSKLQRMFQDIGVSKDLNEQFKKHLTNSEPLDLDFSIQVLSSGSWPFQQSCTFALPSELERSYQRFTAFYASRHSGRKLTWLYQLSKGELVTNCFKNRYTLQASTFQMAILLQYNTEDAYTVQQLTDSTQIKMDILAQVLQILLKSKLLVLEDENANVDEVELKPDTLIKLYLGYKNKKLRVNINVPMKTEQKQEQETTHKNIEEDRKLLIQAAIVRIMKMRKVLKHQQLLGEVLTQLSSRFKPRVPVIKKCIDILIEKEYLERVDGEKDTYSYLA
T6 sequence (Q13309 whole entry): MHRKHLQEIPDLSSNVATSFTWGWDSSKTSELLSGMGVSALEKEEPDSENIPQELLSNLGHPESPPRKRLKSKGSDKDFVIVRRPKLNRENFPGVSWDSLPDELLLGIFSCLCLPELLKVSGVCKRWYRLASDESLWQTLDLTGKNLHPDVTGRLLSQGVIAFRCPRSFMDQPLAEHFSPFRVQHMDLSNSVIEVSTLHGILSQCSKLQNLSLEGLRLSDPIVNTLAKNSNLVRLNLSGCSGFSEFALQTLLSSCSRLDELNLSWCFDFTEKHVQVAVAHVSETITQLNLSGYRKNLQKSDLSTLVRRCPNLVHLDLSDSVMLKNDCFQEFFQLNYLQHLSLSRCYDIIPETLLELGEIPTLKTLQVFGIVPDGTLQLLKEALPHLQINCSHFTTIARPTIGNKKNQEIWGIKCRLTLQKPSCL
Sequence of His-tagged Elongin C (Q15369 whole entry): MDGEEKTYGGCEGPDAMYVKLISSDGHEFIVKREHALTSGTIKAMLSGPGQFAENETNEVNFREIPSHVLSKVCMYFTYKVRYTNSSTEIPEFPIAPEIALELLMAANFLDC
Sequence of human Skp1 (endogenous, HeLa cells) (P63208 2-163 limits assumed): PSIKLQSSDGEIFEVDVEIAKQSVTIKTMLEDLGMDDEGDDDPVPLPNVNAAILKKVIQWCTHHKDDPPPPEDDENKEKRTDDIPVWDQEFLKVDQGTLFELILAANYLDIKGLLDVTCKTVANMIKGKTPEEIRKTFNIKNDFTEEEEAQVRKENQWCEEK

B1
binding result (human F-box protein FBP1): no binding
binding result [1]: no binding
binding result (human F-box protein FBP5): no binding
binding result (human F-box protein FBP2): no binding

B2: Flag-tagged (ΔF)FBP3a (other, not shown: small tags and cut ends)
chain: MKRGGRDSDRNSSEEGTAEKSKKLRTTNEHSQTCDWGNLRCFEFELNQPATSYLKATHPELIKQIIKRHSNHLQYVSFKVDSSKESAEAACDILSQLVNCSLKTLGLISTARPSFMDLPKSHFISALTVVFVNSKSLSSLKIDDTPVDDPSLKVLVANNSDTLKLLKMSSCPHVSPAGILCVADQCHGLRELALNYHLLSDELLLALSSEKHVRLEHLRIDVVSENPGQTHFHTIQKSSWDAFIRHSPKVNLVMYFFLYEEEFDPFFRYEIPATHLYFGRSVSKDVLGRVGMTCPRLVELVVCANGLRPLDEELIRIAERCKNLSAIGLGECEVSCSAFVEFVKMCGGRLSQLSIMEEVLIPDQKYSLEQIHWEVSKHLGRVWFPDMMPTW
notes: pcDNA3 construct, Flag tag at the C-terminus; also called Flag-tagged (deltaF)FBP3a
binding result (human Cul1 (endogenous) [2]): no binding

B3: control phospho-peptide AEIGVGAY*GTVYKARDPHS of human Cdk4 (peptide)
peptide: AEIGVGA[pY]GTVYKARDPHS
notes: Coupled to beads; also called unrelated phospho-peptide
binding result [3]: no binding
binding result (human Cul1 (endogenous) [4]): no binding
binding result (human F-box protein Skp2): no binding

B4: human F-box protein FBP7 (other)
chain: MSNTRFTITLNYKDPLTGDEETLASYGIVSGDLICLILHDDIPPPNIPSSTDSEHSSLQNNEQPSLATSSNQTSIQDEQPSDSFQGQAAQSGVWNDDSMLGPSQNFEAESIQDNAHMAEGTGFYPSEPLLCSESVEGQVPHSLETLYQSADCSDANDALIVLIHLLMLESGYIPQGTEAKALSLPEKWKLSGVYKLQYMHHLCEGSSATLTCVPLGNLIVVNATLKINNEIRSVKRLQLLPESFICKEKLGENVANIYKDLQKLSRLFKDQLVYPLLAFTRQALNLPNVFGLVVLPLELKLRIFRLLDVRSVLSLSAVCRDLFTASNDPLLWRFLYLRDFRDNTVRVQDTDWKELYRKRHIQRKESPKGRFVLLLPSSTHTIPFYPNPLHPRPFPSSRLPPGIIGGEYDQRPTLPYVGDPISSLIPGPGETPSQLPPLRPRFDPVGPLPGPNPILPGRGGPNDRFPFRPSRGRPTDGRLSFM
binding result (His-tagged Elongin C): no binding
binding result [5]: no binding

From patent publication US20020123082A1 (NEW YORK UNIVERSITY, published 2002)
